Kd data for two molecules are collected here from publication PMC12559092 (2025).

This assay has as its target T1, VEGFR-2-Fc domain 1&2&3 (Homo sapiens, UniProt P35968).
T1 chain: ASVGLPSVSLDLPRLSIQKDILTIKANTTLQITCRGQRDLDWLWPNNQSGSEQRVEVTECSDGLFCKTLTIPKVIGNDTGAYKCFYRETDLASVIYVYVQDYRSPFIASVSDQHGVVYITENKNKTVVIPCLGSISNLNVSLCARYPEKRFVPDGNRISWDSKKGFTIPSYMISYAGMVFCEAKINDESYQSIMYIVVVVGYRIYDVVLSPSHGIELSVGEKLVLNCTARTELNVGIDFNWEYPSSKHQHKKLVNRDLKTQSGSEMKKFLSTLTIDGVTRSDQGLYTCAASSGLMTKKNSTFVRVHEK
The assay can be described thus: biolayer interferometry.

B1: VEGF-165 (protein)
chain: MTDRQTDTAPSPSYHLLPGRRRTVDAAASRGQGPEPAPGGGVEGVGARGVALKLFVQLLGCSRFGGAVVRAGEAEPSGAARSASSGREEPQPEEGEEEEEKEEERGPQWRLGARKPGSWTGEAAVCADSAPAARAPQALARASGRGGRVARRGAEESGPPHSPSRRGSASRAGPGRASETMNFLLSWVHWSLALLLYLHHAKWSQAAPMAEGGGQNHHEVVKFMDVYQRSYCHPIETLVDIFQEYPDEIEYIFKPSCVPLMRCGGCCNDEGLECVPTEESNITMQIMRIKPHQGQHIGEMSFLQHNKCECRPKKDRARQEKKSVRGKGKGQKRKRKKSRYKSWSVPCGPCSERRKHLFVQDPQTCKCSCKNTDSRCKARQLELNERTCRCDKPRR
B1 showed a Kd of 0.0035 µM.

For Ac-ESNITMQIMRIKPHQGQHIGEMSFLQHMK-NH2 [VEGF73-101], the Kd was approximately 124 µM.
